Experimental data taken from US20060084789A1, “Immunotherapeutic and immunoprphylactic reagents” (priority 2002, published 2006).

B1: Lol p 5: Rye grass pollen allergen purified from RGP extract by SDS-PAGE or affinity chromatography (mAb FMC A7) (protein)
chain: ADAGYTPAAAATPATPAATPAAAGGKATTDEQKLLEDVNAGFKAAVAAAANAPPADKFKIFEAAFSESSKGLLATSAAKAPGLIPKLDTAYDVAYKAAEGATPEAKYDAFVTALTEALRVIAGALEVHAVKPATEEVPAAKIPTGELQIVDKIDAAFKIAATAANAAPTNDKFTVFESAFNKALNECTGGAYETYKFIPSLEAAVKQAYAATVAAAPEVKYAVFEAALTKAITAMTQAQKAGKPAAAAATGAATVATGAATAAAGAATAAAGGYKA
B2: Lol p 1: Rye grass pollen allergen purified from crude RGP extracts by SDS-PAGE (protein)
chain: IAKVPPGPNITAEYGDKWLDAKSTWYGKPTGAGPKDNCGACGYKDVDKAPFNGMTGCGNTPIFKDGRGCGSCFEIKCTKPESCSGEAVTVTITDDNEEPIAPYHFDLSGHAFGSMAKKGEEQKLRASAGELELQFRRVKCKYPDGTKPTFHVEKASNPNYLAILVKYVDGDGDVVAVDIKEKGKDKWIELKESWGAVWRIDTPDKLTGPFTVRYTTEGGTKSEVEDVIPEGWKADTSYSAK
modifications: Lolium perenne
notes: Rye grass pollen allergen purified from crude RGP extracts by SDS-PAGE

How the values were obtained:
[1] = tested on: RGP-specific TCL; test: TCL proliferation assay (3H-thymidine incorporation, stimulation index); assay type: cell-based, human; details: for TCL that responded, response to allergen or peptide: allergen responsiveness considered as response to allergen or peptide; for TCL tested that responded to purified allergen: ten of fourteen TCL (Lol p 1), nine of fifteen TCL (Lol p 5), positive if SI ≥2.5; for Proliferative response, stimulation index: peptides 10 μg/ml
Experimental: Generation of Short-Term RGP-Specific TCL
PBMC were cultured in 24-well plates (Costar, Mass., USA) at 2.5×10^6 cells/well with RGP extract at a concentration of 25 or 50 μg/ml in RPMI 1640 medium (Gibco BRL, NY, USA) supplemented with 2 mM GlutaMAX I (Gibco BRL), 0.05 mg/ml gentamicin (David Bull Laboratories, Mulgrave, Victoria, Australia) and 5% heat-inactivated hunan AB^+ serum (Sigma, Mo., USA) for 7 days at 37° C. in a 5% CO2 humidified incubator. At day 7, cells were washed once and restimulated in 24-well plates at 5×10^5 cells/well width 25 or 50 μg/ml of RGP extract in the presence of 5×10^5 cells/well irradiated (3000 rads) autologous PBMC as a source of antigen presenting cells (APC). At day 2 following restimulation, 10 U/ml of Lymphocult T-LF (LC; Biotest, Germany) was added as a source of IL-2 and at day 4, 1 ml of culture medium was removed and replaced with fresh medium and 10 U/ml of LC. […] In all experiments T cells were rested for 6 to 7 days after the last addition of antigen and APC before testing.
T cells (5×10^4/well) were cultured in 96-well U bottom plates with either RGP extract at concentrations ranging from 25 to 200 μg/ml, purified Lol p 1 (0.12 to 2 μg/ml) or Lol p 5 (0.1 to 10 μg/ml), or Lol p 1 or Lol p 5 peptides (10 μg/ml), or medium alone (to determine background levels of proliferation), in the presence of washed autologous irradiated (3000 rads) PBMC (5×10^4/well). […] Cultures were incubated for 3 days, pulsed for the last 16 hours with ^3H-thymidine (1 μCi/well) and harvested onto glass fibre filters. ^3H-thymidine incorporation was measured by liquid scintillation spectroscopy and the mean counts per minute (cpm) for triplicate cultures was determined. Responses were considered positive if the stimulation index (SI, cpm of antigen-stimulated T cells divided by cpm of unstimulated T cells) was ≧2.5. Where several concentrations of allergen were tested (i.e., RGP, Lol p 1 and Lol p 5), values corresponding to the highest proliferation are shown.

[2] = tested on: oligoclonal house dust mite (HDM)- or low ammoniated latex (LAL)-reactive CD44^+ T cells; test: Mitogenicity check with irrelevant-antigen T cells and irradiated autologous PBMC; assay type: cell-based; details: culture with HDM- or LAL-reactive T cells and irradiated autologous PBMC; data not shown
Source text: Mitogenicity of RGP, Lol p 1, Lol p 5 and peptides was excluded by culturing with oligoclonal house dust mite (HDM)- or low ammoniated latex (LAL)-reactive CD44^+ T cells in the presence of irradiated autologous PBMC, and toxicity was excluded by co-culture of antigens with HDM- or LAL-reactive T cells in the presence of IL-2 (data not shown).

Row | Molecule | TCL that responded, response to allergen or peptide [1] [%] | TCL tested that responded to purified allergen [1] [%] | Mitogenicity [2] | Proliferative response, stimulation index ([1]; Subject 1 TCL, Lol p 1 series (Table 3), RGP and Lol p 1 maximal response) | Proliferative response, stimulation index ([1]; Subject 2 TCL, Lol p 1 series (Table 3), RGP and Lol p 1 maximal response) | Proliferative response, stimulation index ([1]; Subject 4 TCL, Lol p 1 series (Table 3), RGP and Lol p 1 maximal response) | Proliferative response, stimulation index ([1]; Subject 5 TCL, Lol p 1 series (Table 3), RGP and Lol p 1 maximal response) | Proliferative response, stimulation index ([1]; Subject 6 TCL, Lol p 1 series (Table 3), RGP and Lol p 1 maximal response) | Proliferative response, stimulation index ([1]; Subject 8 TCL, Lol p 5 series (Table 4), RGP and Lol p 5 maximal response) | Proliferative response, stimulation index ([1]; Subject 11 TCL, Lol p 5 series (Table 4), RGP and Lol p 5 maximal response) | Proliferative response, stimulation index ([1]; Subject 15 TCL, Lol p 1 series (Table 3), RGP and Lol p 1 maximal response) | Proliferative response, stimulation index ([1]; Subject 19 TCL, Lol p 1 series (Table 3), RGP and Lol p 1 maximal response) | Proliferative response, stimulation index ([1]; Subject 27 TCL, Lol p 5 series (Table 4), RGP and Lol p 5 maximal response, † affinity purified Lol p 5) | Proliferative response, stimulation index ([1]; Subject 38 TCL, Lol p 5 series (Table 4), RGP and Lol p 5 maximal response, * SDS-PAGE purified Lol p 5)
1 | B1 | 91 | 60 | excluded |  |  |  |  |  |  |  |  |  |  | 
2 | B2 | 79 | 71 | excluded | 5.9 | 3.0 | 2.9 | 2.5 | 4.0 | 4.3 | 3.4 | 0.3 | 10.5 | 3.8† | 3.2*
